Measurements from patent US20100248359A1 (Chugai, published 2010).
Positions count from the first letter of the chain named. Names may count otherwise. Read-outs that look alike come from different tables or passages of the source.

What was measured:
[1] = target: T1, soluble form of GPC3 core protein (human, UniProt P51654 25-563); test: ELISA on plate coated with soluble GPC3 core protein; antibody from COS7 culture supernatant
T1 construct: not shown: His tag added to the C-terminus

[2] = target: T2, GC-3 (GST fusion of GPC3 Ala524 to Lys563) (human, UniProt P51654 524-563); test: Western blotting of GST-fusion proteins
T2 construct: not shown: GST as encoded by pGEX-4T-3 (Amersham), N-terminal to the GPC3 peptide
T2 chain: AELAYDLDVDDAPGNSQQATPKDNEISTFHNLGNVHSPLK

full-length human GPC3 [3] = target: T3, full-length human GPC3 (human, UniProt P51654 25-554); test: flow cytometry, antibody at 5 µg/mL, HepG2 cells
T3 construct: On CHO (DXB11) or SK-HEP-1 (SK-03) transfectants; also used here for the GPC3 on the hepatoma lines HepG2 and HuH-7; also called human glypican 3
T3 sequence (P51654 25-554 limits assumed): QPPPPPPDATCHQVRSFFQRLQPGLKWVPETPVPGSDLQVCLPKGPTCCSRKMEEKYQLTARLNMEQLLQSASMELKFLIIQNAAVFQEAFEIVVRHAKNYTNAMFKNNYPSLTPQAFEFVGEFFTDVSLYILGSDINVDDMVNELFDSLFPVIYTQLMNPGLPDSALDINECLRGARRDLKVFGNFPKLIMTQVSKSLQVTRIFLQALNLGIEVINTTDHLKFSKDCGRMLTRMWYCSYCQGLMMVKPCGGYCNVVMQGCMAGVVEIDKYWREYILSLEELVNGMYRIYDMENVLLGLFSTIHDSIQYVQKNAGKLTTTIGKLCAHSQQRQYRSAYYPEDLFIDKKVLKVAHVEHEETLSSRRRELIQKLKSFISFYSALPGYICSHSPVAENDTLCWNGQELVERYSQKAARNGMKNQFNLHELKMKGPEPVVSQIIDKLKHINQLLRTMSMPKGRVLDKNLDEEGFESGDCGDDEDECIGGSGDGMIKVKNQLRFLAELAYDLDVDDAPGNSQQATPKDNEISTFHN

full-length human GPC3 [4] = target: T3, full-length human GPC3; test: flow cytometry, antibody at 5 µg/mL, HuH-7 cells
[5] = target: T1, soluble form of GPC3 core protein; test: ELISA on plate coated with soluble GPC3 core protein
full-length human GPC3 [6] = target: T3, full-length human GPC3; test: flow cytometry, antibody at 5 µg/mL, CHO cells expressing human GPC3 (column CHO/human GPC3)
[7] = target: T1, soluble form of GPC3 core protein; test: ELISA on plate coated with soluble GPC3 core protein; antibody from COS7 culture supernatant [upper left panel]
[8] = target: T1, soluble form of GPC3 core protein; test: ELISA on plate coated with soluble GPC3 core protein; antibody from COS7 culture supernatant [lower left panel]
[9] = target: T1, soluble form of GPC3 core protein; test: ELISA on plate coated with soluble GPC3 core protein; antibody from COS7 culture supernatant [middle right panel]
[10] = target: T1, soluble form of GPC3 core protein; test: ELISA on plate coated with soluble GPC3 core protein; antibody from COS7 culture supernatant [lower right panel]
[11] = target: T2, GC-3 (GST fusion of GPC3 Ala524 to …); test: Western blotting of GST-fusion proteins, reducing SDS-PAGE
full-length human GPC3 [12] = target: T3, full-length human GPC3; test: flow cytometry, antibody at 5 µg/mL, HepG2 cells; remark: listed apart in the source
full-length human GPC3 [13] = target: T3, full-length human GPC3; test: flow cytometry, antibody at 5 µg/mL, HuH-7 cells; remark: listed apart in the source
[14] = target: T1, soluble form of GPC3 core protein; test: ELISA on plate coated with soluble GPC3 core protein; remark: listed apart in the source
full-length human GPC3 [15] = target: T3, full-length human GPC3; test: BIACORE; the form of GPC3 used is not given
[16] = target: T4, secreted form of GPC3 in the culture supernatant of HepG2 (human, UniProt P51654 25-358, limits assumed); test: immunoprecipitation of the culture supernatant of HepG2, detection of secreted GPC3
T4 construct: also called secretory GPC3; secreted form of GPC3 of 40 kDa
T4 sequence (P51654 25-358 limits assumed): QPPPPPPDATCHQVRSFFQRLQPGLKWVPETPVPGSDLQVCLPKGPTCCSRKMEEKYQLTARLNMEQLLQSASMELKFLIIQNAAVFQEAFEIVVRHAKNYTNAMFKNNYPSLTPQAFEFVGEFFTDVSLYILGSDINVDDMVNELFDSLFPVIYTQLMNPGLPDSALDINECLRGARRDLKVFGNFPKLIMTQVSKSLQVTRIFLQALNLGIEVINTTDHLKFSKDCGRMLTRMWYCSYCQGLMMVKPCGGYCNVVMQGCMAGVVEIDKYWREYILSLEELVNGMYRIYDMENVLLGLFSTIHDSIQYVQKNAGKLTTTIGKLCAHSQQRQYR

[17] = target: T1, soluble form of GPC3 core protein; test: competitive ELISA on coated soluble GPC3 core protein; labelled competitor biotin-M1E7;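 further: Biotin-labelled antibody added as 10 µL at 10 µg/mL for 1 h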
[18] = target: T1, soluble form of GPC3 core protein; test: competitive ELISA on coated soluble GPC3 core protein; labelled competitor biotin-M5B9;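 further: Biotin-labelled antibody added as 10 µL at 10 µg/mL for 1 h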
[19] = target: T1, soluble form of GPC3 core protein; test: competitive ELISA on coated soluble GPC3 core protein; labelled competitor biotin-M6B1;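 further: Biotin-labelled antibody added as 10 µL at 10 µg/mL for 1 h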
[20] = target: T1, soluble form of GPC3 core protein; test: competitive ELISA on coated soluble GPC3 core protein; labelled competitor biotin-L9G11;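 further: Biotin-labelled antibody added as 10 µL at 10 µg/mL for 1 h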
[21] = target: T1, soluble form of GPC3 core protein; test: competitive ELISA on coated soluble GPC3 core protein; labelled competitor biotin-M10D2;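 further: Biotin-labelled antibody added as 10 µL at 10 µg/mL for 1 h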
[22] = target: T1, soluble form of GPC3 core protein; test: competitive ELISA on coated soluble GPC3 core protein; labelled competitor biotin-M11F1;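 further: Biotin-labelled antibody added as 10 µL at 10 µg/mL for 1 h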
[23] = target: T1, soluble form of GPC3 core protein; test: competitive ELISA on coated soluble GPC3 core protein; labelled competitor biotin-M18D4;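 further: Biotin-labelled antibody added as 10 µL at 10 µg/mL for 1 h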
[24] = target: T1, soluble form of GPC3 core protein; test: competitive ELISA on coated soluble GPC3 core protein; labelled competitor biotin-M3C11;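 further: Biotin-labelled antibody added as 10 µL at 10 µg/mL for 1 h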
full-length human GPC3 [25] = target: T3, full-length human GPC3; test: flow cytometry, antibody at 5 µg/mL, CHO cells expressing human GPC3 (column CHO/human GPC3); remark: listed apart in the source

B1: humanized GC33 H chain ver.k / L chain ver.a (antibody, V domains shown)
VH: QVQLVQSGAEVKKPGASVKVSCKASGYTFTDYEMHWVRQAPGQGLEWMGALDPKTGDTAYSQKFKGRVTLTADKSTSTAYMELSSLTSEDTAVYYCTRFYSYTYWGQGTLVTVSS
VL: DVVMTQSPLSLPVTPGEPASISCRSSQSLVHSNGNTYLHWYLQKPGQSPQLLIYKVSNRFSGVPDRFSGSGSGTDFTLKISRVEAEDVGVYYCSQNTHVPPTFGQGTKLEIK
notes: Parent of the N33 and G34 L chain variants
[1]
  EC50 (read off the curve): ~0.02 µg/mL

B2: GC33 (antibody, V domains shown)
VH: QVQLQQSGAELVRPGASVKLSCKASGYTFTDYEMHWVKQTPVHGLKWIGALDPKTGDTAYSQKFKGKATLTADKSSSTAYMELRSLTSEDSAVYYCTRFYSYTYWGQGTLVTVSA
VL: B1 VL with S7T, T14S, P15L, E17D, P18Q, Q50K, V88L, Y92F, Q105S
notes: Mouse monoclonal from a mouse immunized with GC-3; also called GC33 antibody
[2]
  binding result: binds
full-length human GPC3 [3]
  FACS X-mode value of the histogram: 52
full-length human GPC3 [4]
  FACS X-mode value of the histogram: 8.4
[5]
  EC50: 240 pM
full-length human GPC3 [6]
  FACS X-mode value of the histogram: 82.7

B3: modified humanized GC33 (H chain ver.k, L chain G34D) (antibody, human IgG1, V domains shown)
VH: B1 VH
VL: B1 VL with G34D
notes: COS7 supernatant; human IgG1/kappa
[7]
  EC50 (read off the curve): ~0.02 µg/mL

B4: modified humanized GC33 (H chain ver.k, L chain G34W) (antibody, human IgG1, V domains shown)
VH: B1 VH
VL: B1 VL with G34W
notes: as for B3
[8]
  EC50 (read off the curve): ~0.02 µg/mL

B5: modified humanized GC33 (H chain ver.k, L chain G34K) (antibody, human IgG1, V domains shown)
VH: B1 VH
VL: B1 VL with G34K
notes: as for B3
[9]
  EC50 (read off the curve): ~0.02 µg/mL

B6: modified humanized GC33 (H chain ver.k, L chain G34R) (antibody, human IgG1, V domains shown)
VH: B1 VH
VL: B1 VL with G34R
notes: as for B3
[10]
  EC50 (read off the curve): ~0.02 µg/mL

B7: modified humanized GC33 (H chain ver.k, L chain G34I) (antibody, human IgG1, V domains shown)
VH: B1 VH
VL: B1 VL with G34I
notes: as for B3
[9]
  EC50 (read off the curve): ~0.02 µg/mL

B8: modified humanized GC33 (H chain ver.k, L chain G34A) (antibody, human IgG1, V domains shown)
VH: B1 VH
VL: B1 VL with G34A
notes: as for B3
[7]
  EC50 (read off the curve): ~0.02 µg/mL

B9: modified humanized GC33 (H chain ver.k, L chain G34Y) (antibody, human IgG1, V domains shown)
VH: B1 VH
VL: B1 VL with G34Y
notes: as for B3
[8]
  EC50 (read off the curve): ~0.02 µg/mL

B10: GC179 (antibody, V domains shown)
VH: EVQLVETGGGLVQPEGSLKLSCAASGFSFNINAMNWVRQAPGKGLEWVARIRSESNNYATYYGDSVKDRFTISRDDSQNMLYLQMNNLKTEDTAIYYCVREVTTSFAYWGQGTLVTVSA
VL: DIVMTQSAPSVPVTPGESVSISCKSSKSLLHSNGNTYLNWFLQRPGQSPQLLIYWMSNLASGVPDRFSGSGSGTAFTLRISRVEAEDVGVYYCMQHIEYPFTFGTGTKLEIK
notes: Mouse monoclonal from a mouse immunized with GC-3
[2]
  binding result: binds
full-length human GPC3 [3]
  FACS X-mode value of the histogram: 6.5
full-length human GPC3 [4]
  FACS X-mode value of the histogram: 3.8
[5]
  EC50: 5610 pM
full-length human GPC3 [6]
  FACS X-mode value of the histogram: 7.1

B11: M11F1 (antibody, V domains shown)
VH: QVTLKESGPGILQPSQTLSLTCSFSGFSLSIYGMGVGWIRQPSGKGLEWLANIWWNDDKYYNSALKSRLTISKDTSNNQVFLKISSVDTADTATYYCAQIGYFYFDYWGQGTTLTVSS
VL: DVVMTQTPLSLPVSLGDQASISCRSSQSLVHSNGNTYLHWYLQKPGQSPKLLIYKVSNRFSGVPDRFSGSGSGTDFTLKISRVEAEDLGVYFCSQSTHVPWTFGGGTKLEIK
notes: Mouse monoclonal from hybridoma
[11]
  binding result: binds
full-length human GPC3 [12]
  FACS X-mode value of the histogram: 4
full-length human GPC3 [13]
  FACS X-mode value of the histogram: 2
[14]
  EC50: 2170 pM
full-length human GPC3 [15]
  Kd: 200 pM
  koff: 3.5e-05 s⁻¹
  kon: 140000 M⁻¹ s⁻¹
[16]
  binding result: no binding
[17]
  Inhibition of the binding of indicated biotin-Mab to sGPC3 core (%): 3.9%
[18]
  Inhibition of the binding of indicated biotin-Mab to sGPC3 core (%): 5.4%
[19]
  Inhibition of the binding of indicated biotin-Mab to sGPC3 core (%): 5.6%
[20]
  Inhibition of the binding of indicated biotin-Mab to sGPC3 core (%): 20.9%
[21]
  Inhibition of the binding of indicated biotin-Mab to sGPC3 core (%): 24.6%
[22]
  Inhibition of the binding of indicated biotin-Mab to sGPC3 core (%): 81.8%
[23]
  Inhibition of the binding of indicated biotin-Mab to sGPC3 core (%): -1.5%
[24]
  Inhibition of the binding of indicated biotin-Mab to sGPC3 core (%): 2%
full-length human GPC3 [25]
  FACS X-mode value of the histogram: 9

B12: M1E7 (antibody, human IgG1, kappa, V domains shown)
VH: EVQLQQSGPELVKPGASVKISCKASGYSFTGYYMHWVKQSPEKSLEWIGEINPSTGGTTYNQKFKAKATLTVDKSSSTAYMQLKSLTSEDSAVYYCARRGGLTGTSFFAYWGQGTLVTVSA
VL: DVVMTQTPLSLSVTIGQPASISCKSSQSLLYSNGKTYLNWLQQRPGQAPKHLMYQVSKLDPGIPDRFSGSGSETDFTLKISRVEAEDLGVYYCLQSTYYPLTFGAGTKLELKR
notes: Mouse monoclonal from hybridoma; also called M1E07
[11]
  binding result: no binding
full-length human GPC3 [12]
  FACS X-mode value of the histogram: 16
full-length human GPC3 [13]
  FACS X-mode value of the histogram: 5
[14]
  EC50: 960 pM
full-length human GPC3 [15]
  Kd: 2800 pM
  koff: 0.000427 s⁻¹
  kon: 150000 M⁻¹ s⁻¹
[16]
  binding result: no binding
[17]
  Inhibition of the binding of indicated biotin-Mab to sGPC3 core (%): 83.9%
[18]
  Inhibition of the binding of indicated biotin-Mab to sGPC3 core (%): 6.4%
[19]
  Inhibition of the binding of indicated biotin-Mab to sGPC3 core (%): 7.7%
[20]
  Inhibition of the binding of indicated biotin-Mab to sGPC3 core (%): 38%
[21]
  Inhibition of the binding of indicated biotin-Mab to sGPC3 core (%): 14.8%
[22]
  Inhibition of the binding of indicated biotin-Mab to sGPC3 core (%): 14.3%
[23]
  Inhibition of the binding of indicated biotin-Mab to sGPC3 core (%): 9%
[24]
  Inhibition of the binding of indicated biotin-Mab to sGPC3 core (%): 26%
full-length human GPC3 [25]
  FACS X-mode value of the histogram: 28

B13: GC199 (antibody, V domains shown)
VH: QIQLEQSGPELKKPGETVKISCKASGYIFRDYSMHWVKQAPGKGLKWMGWINTETGEPTYADDFKGRFAFSLETSASTAYLQINNLKNEDTATYFCTSLYWGQGTLVTVSA
VL: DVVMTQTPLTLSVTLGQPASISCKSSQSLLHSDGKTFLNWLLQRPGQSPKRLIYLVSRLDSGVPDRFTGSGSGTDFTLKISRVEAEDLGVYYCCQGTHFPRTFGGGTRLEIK
notes: Mouse monoclonal from a mouse immunized with GC-3; also called GC199 antibody
[2]
  binding result: binds
full-length human GPC3 [3]
  FACS X-mode value of the histogram: 12.2
full-length human GPC3 [4]
  FACS X-mode value of the histogram: 2.4
[5]
  EC50: 100 pM
full-length human GPC3 [6]
  FACS X-mode value of the histogram: 15.5
